{
  "source": "paper PMC10776578",
  "about": "“Epstein-Barr virus-driven B cell lymphoma mediated by a direct LMP1-TRAF6 complex” (Nature Communications, 2024)",
  "molecules": {"B1": {"name": "R392A (protein, UniProt Q9Y4K3 1-522, looked up, variant R392A)", "TNF receptor-associated …": "MSLLNCENSCGSSQSESDCCVAMASSCSAVTKDDSVGGTASTGNLSSSFMEEIQGYDVEFDPPLESKYECPICLMALREAVQTPCGHRFCKACIIKSIRDAGHKCPVDNEILLENQLFPDNFAKREILSLMVKCPNEGCLHKMELRHLEDHQAHCEFALMDCPQCQRPFQKFHINIHILKDCPRRQVSCDNCAASMAFEDKEIHDQNCPLANVICEYCNTILIREQMPNHYDLDCPTAPIPCTFSTFGCHEKMQRNHLARHLQENTQSHMRMLAQAVHSLSVIPDSGYISEVRNFQETIHQLEGRLVRQDHQIRELTAKMETQSMYVSELKRTIRTLEDKVAEIEAQQCNGIYIWKIGNFGMHLKCQEEEKPVVIHSPGFYTGKPGYKLCMALHLQLPTAQRCANYISLFVHTMQGEYDSHLPWPFQGTIRLTILDQSEAPVRQNHEEIMDAKPELLAFQRPTIPRNPKGFGYVTFMHLEALRQRTFIKDDTLLVRCEVSTRFDMGSLRREGFQPRSTDAGV"}, "B2": {"name": "Y473A (protein, UniProt Q9Y4K3 1-522, looked up, variant Y473A)", "TNF receptor-associated …": "B1 TNF receptor-associated … with A392R, Y473A"}, "B3": {"name": "F471A (protein, UniProt Q9Y4K3 1-522, looked up, variant F471A)", "TNF receptor-associated …": "B1 TNF receptor-associated … with A392R, F471A"}},
  "note": "Substitutions are numbered along the chain they refer to. Numbers in names are those of the source. Entries after “also recorded” stand apart in the source; their conditions may differ.",
  "data": [
    {"tested_on": "GST-LMP1_181-386", "experiment": "AlphaScreen PPI, TRAF6 mutants binding to LMP1", "parameters": "species or system Epstein-Barr virus; TRAF6 binding to LMP1 (AlphaScreen), mean: unit not given here", "conditions": "AlphaScreen PPI", "experimental": "(§1) Fig. 2 LMP1 binds to the receptor-interacting surface of TRAF6. a Mutations within the receptor-interacting surface of TRAF6 affect binding to LMP1. The TRAF6 mutants R392A, K469A, F471A, and Y473A were tested LMP1 in AlphaScreen PPI experiments with GST-LMP1_181-386. Data are mean values ± SD of three independent experiments. Statistics: one-way ANOVA. b TRAF6 R392A differentiates between CD40 and LMP1/RANK. AlphaScreen PPI experiments with GST-CD40_216-277. Data are mean values ± SD of three independent experiments. […] AlphaScreen PPI experiments with GST-RANK314-355. Data are mean values ± SD of four independent experiments. Statistics: one-way ANOVA. d TRAF6 mutants that fail to interact with LMP1 in PPI assays are also unable to bind cellular LMP1. HEK293 cells were co-transfected with HA-LMP1 and the indicated Flag-TRAF6 mutants. Flag-TRAF6 was immunoprecipitated (IP) via its Flag-tag and coprecipitated HA-LMP1 was detected on immunoblots by an α-HA antibody. Uncropped blots in Supplementary Fig. 6b. For statistical analysis LMP1 signals were digitalized and quantified (graph). Data are mean values ± SD of three independent experiments. […] TRAF6 recruitment is dependent on amino acids 371 − 386 of LMP1 (small panel). Confocal microscopy images show representative cells of three independent experiments. Quantitative data are mean values ± SD of ten randomly selected cells per transfection of one representative experiment (graph). Scale bars: 10 µm. Statistics: one-way ANOVA. p-values: *p ≤ 0.05, **p ≤ 0.01, ***p ≤ 0.001, ****p ≤ 0.0001. Source data and exact p-values in the Source Data file.\n(§2) AlphaScreen experiments were performed in 96- or 384-well plates (Perkin Elmer, OptiPlate). In both assay formats, His-TRAF and GST-LMP1, GST-CD40, or GST-RANK proteins were incubated together in 40 µL of PBS (protein concentrations were calculated to the final reaction volume of 60 µL) supplemented with 0.5% BSA (Sigma, #A7030) and 0.1% Tween-20 (AppliChem, #A4974), for 1 h at room temperature (RT). If not indicated otherwise, standard protein concentrations were 300 nM for His-TRAF proteins and 100 nM for GST-LMP1 proteins. Ni-NTA-acceptor (Perkin Elmer, #6760619 C) and GST-acceptor (Perkin Elmer, # 6765300) beads were added each to a final concentration of 1–4 µg per mL in a final reaction volume of 60 µL and incubated for 1 h at RT in the dark. AlphaScreen PPI signals were measured in a CLARIOstar reader (BMG Labtech GmbH).", "values": [
      {"molecule": "B1", "effect of TRAF6 mutation on binding to LMP1 (in words)": "prevented the interaction of TRAF6 with LMP1 and RANK"},
      {"molecule": "B2", "effect of TRAF6 mutation on binding to LMP1 (in words)": "complete loss of TRAF6 binding"},
      {"molecule": "B3", "effect of TRAF6 mutation on binding to LMP1 (in words)": "complete loss of TRAF6 binding"}
    ]},
    {"tested_on": "GST-LMP1_181-386", "experiment": "AlphaScreen PPI, TRAF6 mutants binding to LMP1", "parameters": "species or system Epstein-Barr virus; TRAF6 binding to LMP1 (AlphaScreen), mean: unit not given here", "conditions": "Figure 2a, mean of n = 3", "experimental": "as §1, §2", "values": [
      {"molecule": "B1", "TRAF6 binding to LMP1 (AlphaScreen), mean": 4.615},
      {"molecule": "B2", "TRAF6 binding to LMP1 (AlphaScreen), mean": 1.355},
      {"molecule": "B3", "TRAF6 binding to LMP1 (AlphaScreen), mean": 5.785}
    ]},
    {"tested_on": "GST-LMP1_181-386", "experiment": "AlphaScreen PPI, TRAF6 mutants binding to LMP1", "parameters": "species or system Epstein-Barr virus; TRAF6 binding to LMP1 (AlphaScreen), mean: unit not given here", "conditions": "Figure 2a, relative to mean wt 100; replicate 1", "experimental": "as §1, §2", "values": [
      {"molecule": "B1", "TRAF6 binding to LMP1 (AlphaScreen)": 2.0},
      {"molecule": "B2", "TRAF6 binding to LMP1 (AlphaScreen)": 0.9},
      {"molecule": "B3", "TRAF6 binding to LMP1 (AlphaScreen)": 2.7}
    ]},
    {"tested_on": "GST-LMP1_181-386", "experiment": "AlphaScreen PPI, TRAF6 mutants binding to LMP1", "parameters": "species or system Epstein-Barr virus; TRAF6 binding to LMP1 (AlphaScreen), mean: unit not given here", "conditions": "Figure 2a, replicate 2", "experimental": "as §1, §2", "values": [
      {"molecule": "B1", "TRAF6 binding to LMP1 (AlphaScreen)": 6.0},
      {"molecule": "B2", "TRAF6 binding to LMP1 (AlphaScreen)": 1.6},
      {"molecule": "B3", "TRAF6 binding to LMP1 (AlphaScreen)": 7.8}
    ]},
    {"tested_on": "GST-LMP1_181-386", "experiment": "AlphaScreen PPI, TRAF6 mutants binding to LMP1", "parameters": "species or system Epstein-Barr virus; TRAF6 binding to LMP1 (AlphaScreen), mean: unit not given here", "conditions": "Figure 2a, replicate 3", "experimental": "as §1, §2", "values": [
      {"molecule": "B1", "TRAF6 binding to LMP1 (AlphaScreen)": 5.9},
      {"molecule": "B2", "TRAF6 binding to LMP1 (AlphaScreen)": 1.5},
      {"molecule": "B3", "TRAF6 binding to LMP1 (AlphaScreen)": 6.8}
    ]},
    {"tested_on": "GST-CD40_216-277", "experiment": "AlphaScreen PPI, TRAF6 mutants binding to CD40", "parameters": "species or system human; TRAF6 binding to CD40 (AlphaScreen), mean: unit not given here", "conditions": "AlphaScreen PPI", "experimental": "as §1, §2", "values": [
      {"molecule": "B1", "effect of TRAF6 mutation on binding to CD40 (in words)": "no impact on TRAF6 binding to CD40"},
      {"molecule": "B2", "effect of TRAF6 mutation on binding to CD40 (in words)": "complete loss of TRAF6 binding"},
      {"molecule": "B3", "effect of TRAF6 mutation on binding to CD40 (in words)": "complete loss of TRAF6 binding"}
    ]},
    {"tested_on": "GST-CD40_216-277", "experiment": "AlphaScreen PPI, TRAF6 mutants binding to CD40", "parameters": "species or system human; TRAF6 binding to CD40 (AlphaScreen), mean: unit not given here", "conditions": "Figure 2b, mean of n = 3", "experimental": "as §1, §2", "values": [
      {"molecule": "B1", "TRAF6 binding to CD40 (AlphaScreen), mean": 85.62},
      {"molecule": "B2", "TRAF6 binding to CD40 (AlphaScreen), mean": 0.5871},
      {"molecule": "B3", "TRAF6 binding to CD40 (AlphaScreen), mean": 0.6069}
    ]},
    {"tested_on": "GST-CD40_216-277", "experiment": "AlphaScreen PPI, TRAF6 mutants binding to CD40", "parameters": "species or system human; TRAF6 binding to CD40 (AlphaScreen), mean: unit not given here", "conditions": "Figure 2b, relative to mean wt 100; replicate 1", "experimental": "as §1, §2", "values": [
      {"molecule": "B1", "TRAF6 binding to CD40 (AlphaScreen)": 56.3},
      {"molecule": "B2", "TRAF6 binding to CD40 (AlphaScreen)": 0.7},
      {"molecule": "B3", "TRAF6 binding to CD40 (AlphaScreen)": 0.8}
    ]},
    {"tested_on": "GST-CD40_216-277", "experiment": "AlphaScreen PPI, TRAF6 mutants binding to CD40", "parameters": "species or system human; TRAF6 binding to CD40 (AlphaScreen), mean: unit not given here", "conditions": "Figure 2b, replicate 2", "experimental": "as §1, §2", "values": [
      {"molecule": "B1", "TRAF6 binding to CD40 (AlphaScreen)": 84.0},
      {"molecule": "B2", "TRAF6 binding to CD40 (AlphaScreen)": 0.5},
      {"molecule": "B3", "TRAF6 binding to CD40 (AlphaScreen)": 0.43}
    ]},
    {"tested_on": "GST-CD40_216-277", "experiment": "AlphaScreen PPI, TRAF6 mutants binding to CD40", "parameters": "species or system human; TRAF6 binding to CD40 (AlphaScreen), mean: unit not given here", "conditions": "Figure 2b, replicate 3", "experimental": "as §1, §2", "values": [
      {"molecule": "B1", "TRAF6 binding to CD40 (AlphaScreen)": 116.7},
      {"molecule": "B2", "TRAF6 binding to CD40 (AlphaScreen)": 0.5},
      {"molecule": "B3", "TRAF6 binding to CD40 (AlphaScreen)": 0.6}
    ]},
    {"tested_on": "HA-LMP1", "experiment": "Confocal immunofluorescence colocalization of Flag-TRAF6 with HA-LMP1 in HeLa cells", "format": "cell-based, Epstein-Barr virus", "conditions": "confocal microscopy", "experimental": "(§3) HeLa cells were seeded onto cover glasses (Thermo Scientific, Menzel) in 24-well plates one day before transfection. Cells were transfected at 50–60% confluency with 50 ng of pCMV-HA-LMP1 plasmids and 100 ng of pRK5-Flag-TRAF6 plasmids, adjusted to a total of 500 ng DNA per sample with pRK5 empty vector, using Lipofectamine 2000 (Thermo Fisher Scientific) according to the manufacturer’s instructions. At 24 h posttransfection, cells were washed once with PBS and fixed with 4% paraformaldehyde (Sigma-Aldrich) for 20 min at RT, followed by permeabilization with 0.3% (v/v) Triton X-100 and blocking with 5% (v/v) FBS in PBS for 1 h at RT. For immunostaining, the cells were incubated overnight with the primary antibodies α-HA (1:1000, clone 16B12, BioLegend) and α-DYKDDDDK (1:1000, clone L5, BioLegend) at 4 °C. The secondary antibodies goat α-mouse Alexa 488 (1:500, cross-adsorbed, Invitrogen, #A-11029) and goat α-rat Alexa 555 (1:500, cross-adsorbed, Invitrogen, #A-21434) were added for 1.5 h at RT. Microscope slides were sealed with cover glasses using Mowiol mounting medium (Sigma-Aldrich). Nuclei were stained with Hoechst 33258 (Sigma-Aldrich). All samples were imaged using a Leica TCS SP5 confocal microscope with 405 nm, 488 nm, 543 nm or 633 nm laser lines, scanning each channel separately under image capture conditions that eliminated channel overlap. For each single experiment, 10 transfected cells positive for both constructs were randomly captured as single-cell images for quantification. The resulting images were then analyzed using the Leica TCS SP5 colocalization analyses application (LAS AF Version 2.7.3.9723). Analysis was performed with default parameters.", "values": [
      {"molecule": "B1", "colocalization with HA-LMP1 (in words)": "fail to interact with LMP1 wild-type clusters; also recorded: strongly decreased colocalization with HA-LMP1"},
      {"molecule": "B2", "colocalization with HA-LMP1 (in words)": "fail to interact with LMP1 wild-type clusters; also recorded: strongly decreased colocalization with HA-LMP1"},
      {"molecule": "B3", "colocalization with HA-LMP1 (in words)": "fail to interact with LMP1 wild-type clusters; also recorded: strongly decreased colocalization with HA-LMP1"}
    ]},
    {"tested_on": "HA-LMP1", "experiment": "Confocal immunofluorescence colocalization of Flag-TRAF6 with HA-LMP1 in HeLa cells", "format": "cell-based, Epstein-Barr virus", "conditions": "mean of ten cells", "experimental": "as §3", "values": [
      {"molecule": "B1", "colocalization of TRAF6 with LMP1, mean": 16.72},
      {"molecule": "B2", "colocalization of TRAF6 with LMP1, mean": 24.45},
      {"molecule": "B3", "colocalization of TRAF6 with LMP1, mean": 13.45}
    ]}
  ]
}
